From paper PMC10907630, “Phosphorylation regulates tau’s phase separation behavior and interactions with chromatin”

Key:
tau 1N4R [1] = biological target: T1, tau 1N4R (UniProt P10636-7 1-412); experiment: EMSA; 10 mM NaCl; Hill fit; EMSA: 20 nM DNA or nucleosome, 20 mM HEPES pH 7.2, 10 mM NaCl (or 150), 0.5 mM TCEP, 0.1% Tween-20, 5% sucrose, room temperature 20 min; FA: 10 nM DNA, same buffer with 10 mM NaCl, 0.01% NP-40 substitute, room temperature 10 min; conditions: protein: recombinant; tags: none stated; label: 5' 6-FAM on strand 1; blunt
tau 1N4R [2] = biological target: T1, tau 1N4R; experiment: fluorescence anisotropy; 10 mM NaCl; Hill fit; EMSA: 20 nM DNA or nucleosome, 20 mM HEPES pH 7.2, 10 mM NaCl (or 150), 0.5 mM TCEP, 0.1% Tween-20, 5% sucrose, room temperature 20 min; FA: 10 nM DNA, same buffer with 10 mM NaCl, 0.01% NP-40 substitute, room temperature 10 min; conditions: protein: recombinant; tags: none stated; label: 5' 6-FAM on strand 1; blunt

T1 sequence (P10636 other isoform, or with tags, fused parts or gaps): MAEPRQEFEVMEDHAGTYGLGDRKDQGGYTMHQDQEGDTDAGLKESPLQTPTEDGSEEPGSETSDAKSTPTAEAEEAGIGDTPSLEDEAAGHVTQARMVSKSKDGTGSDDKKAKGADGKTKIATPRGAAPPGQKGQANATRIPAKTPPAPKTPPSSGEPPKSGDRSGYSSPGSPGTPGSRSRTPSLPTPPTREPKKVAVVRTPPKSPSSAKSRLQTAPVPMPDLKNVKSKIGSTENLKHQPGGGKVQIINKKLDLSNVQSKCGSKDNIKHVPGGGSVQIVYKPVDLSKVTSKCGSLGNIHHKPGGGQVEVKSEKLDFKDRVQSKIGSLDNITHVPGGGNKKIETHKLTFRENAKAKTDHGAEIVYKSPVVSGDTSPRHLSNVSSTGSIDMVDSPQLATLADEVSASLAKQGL

B1: 22 bp DNA (dsDNA)
DNA 1: ATTTAGAAATGTCCACTGTAGG
DNA 2: CCTACAGTGGACATTTCTAAAT
B1 gave a Kd (tau 1N4R [1]) of 112 ± 3.7 nM and a Kd (tau 1N4R [2]) of 6.3 ± 0.5 nM.
